Results: the supplement of paper PMC12042874
± gives the uncertainty stated by the source.

Test: amyloid nucleation score (Sup35N fusion, yeast selection) (log enrichment); library NNK2; higher = more nucleation; inactive = no reads after selection
Summary of the method: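 Three technical output replicates were used for random libraries. Psi-negative yeast expressing peptides of 20 random codons fused to Sup35N were induced with 100 μM copper sulfate for 24 hours and grown 7 days at 30°C on medium lacking adenine and uracil, and input and output plasmid inserts were Illumina-sequenced, excluding sequences with under 100 input reads. The nucleation score is the DiMSum log enrichment of output over input reads, centred on the mode score of non-aggregating sequences.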

| Substance | amyloid nucleation score |
| --- | --- |
| KVSAPHCRLGFWCILC | inactive |
| FIMEAFFEPFNKGYRYRMMS | 0.833 ± 0.18 |
| NRKRLWHYFLGTKDISIERV | inactive |
| MRQWEQNSCYDLPAYLWNVG | -0.079 ± 0.56 |
| HLTSS | 0.772 ± 0.44 |
| VPFYVFSVIGMIYMHGWVEW | -0.748 ± 0.56 |
| FIKDKKSPSCCAN | -0.866 ± 0.4 |
| SNCRTSFIQMVVYDCFGSFF | 4.74 ± 0.09 |
| LTICS | -1.03 ± 0.78 |
| PSVGYSITWGNILLYRIGFR | -1.19 ± 1 |
| GCRTFDPSNGAAIDGAMSFV | inactive |
| MFLVSFRCVSYSAWYLTYMQ | -0.338 ± 0.63 |
| TRMDNAY | -0.132 ± 0.65 |
| IDFQVVWSIFLENSKKHSTR | 0.213 ± 0.8 |
| KNLLVHNFACGR | 0.462 ± 0.74 |
| FWDAWSDDRRERWRPCPPRT | 1.45 ± 0.38 |
| GWNGNLSGTAHLGSSIVSSG | -0.649 ± 0.79 |
| LLKFRVCPW | 4.5 ± 0.086 |
| LSEMYTFCEDSRAFTVYWTF | -1.02 ± 0.45 |
| NCWISIYNMFLLRRRMMGMG | -0.611 ± 0.63 |
| VWVVCEFLAVVPKTKIFRTD | 0.721 ± 0.66 |
| DVGCAMPSYTRGWYVYSNLM | 0.58 ± 0.42 |

| Substance | amyloid nucleation score |
| --- | --- |
| GYRSHSDNNICNVSGSHTYI | 3.96 ± 0.065 |
| DKRPALFVYSVCRVSSIR | -1.26 ± 0.49 |
| QSGYVGNGVWVVTVVSKLMC | 6.796 ± 0.037 |
| DLLGIEPTTVCFYFDTDIRH | 2.9 ± 0.07 |
| FLDPTVFSYLQVTCDIVDLH | -0.113 ± 1.1 |
| EKVGS | -0.097 ± 1.1 |
| FEMIC | 0.783 ± 0.57 |
| VLGMYVFDRG | 0.543 ± 0.46 |
| WNHGIWS | 1.03 ± 0.37 |
| ACNSTFNRIEVYARVMKDTS | 3.96 ± 0.094 |
| RLEVGGTN | 2.86 ± 0.11 |
| HPWSFLKVGVQFVGFWDSPY | 0.366 ± 0.19 |
| EVRFSILFGSVIKRTV | 1.09 ± 0.21 |
| VGRGMHTSYFVGTHTWLSVC | 4.83 ± 0.11 |
| HRVRIINCKKIWGNALWVRL | 1.15 ± 0.14 |
| SVLRSNRIVDLSIL | inactive |
| KNSVVL | 0.275 ± 0.64 |
| CERLDCSQKDSGCYWRRHGI | 0.471 ± 0.62 |
| YMHSICLFIVDNKIDYLRGY | 0.541 ± 0.74 |
| QIKRQGHLESPSRQR | 0.128 ± 0.37 |
| FPNDKLCNFFFDNNQSLARK | -1.31 ± 1 |
| LAGWRRK | 0.355 ± 0.36 |

| Substance | amyloid nucleation score |
| --- | --- |
| MFFSFNVFDFGPL | 4.698 ± 0.036 |
| IVMGLGLGASVSRGWNN | 3.58 ± 0.069 |
| VFSFRGLFGFIPMVPYWYAI | inactive |
| TGKYICRW | -0.843 ± 0.38 |
| MSRSSPMIHFETCWHASAGF | 3.82 ± 0.044 |
| LTSKAVAYNDLACFMLS | 0.613 ± 0.74 |
| KWVRLNKFNLPPHYSPPQTM | 1.42 ± 0.24 |
| HSFEFWIDTRWLVFINPYSR | -0.846 ± 0.44 |
| KTMWLLWINGLHMSSHFRSK | -0.006 ± 0.22 |
| SRLSLIFDSIYLCS | 2.97 ± 0.15 |
| WGHRVDCIFKSNLSA | -0.878 ± 0.31 |
| SVYVVGFLCQGYSSLRSLVA | 4.42 ± 0.089 |
| FDLSREV | -0.544 ± 0.29 |
| SYPDELNLEFGCYHQSWTYF | 3.67 ± 0.058 |
| YSIVNTNAGMTTRAWVTPTW | 1.38 ± 0.21 |
| GYRSIFLLFFPADHPLHTIY | -0.064 ± 1.1 |
| HRTMHRTHSICGGVDQRELL | -0.538 ± 0.48 |
| NTALSGDCVRCPSAYEWVKV | 3.25 ± 0.11 |
| QQMSIHRYADGVFELGIPVM | 0.11 ± 0.54 |
| HWGLNTWPYSDFGVTLLRGH | -0.477 ± 0.76 |
| SCMYIFLFLNSNIQLIVWDV | -0.137 ± 1.1 |
| TSVQFCLLICLFRSTGNCAR | 2.1 ± 0.1 |

| Substance | amyloid nucleation score |
| --- | --- |
| KGFIIFSFSSAIR | 2.46 ± 0.1 |
| YPIVLRA | 1.01 ± 0.48 |
| SHSGIFSDAAHDVLGGGEEK | 0.503 ± 0.8 |
| VMWRTRGTACSLIVRWVGMG | 0.822 ± 0.25 |
| IALANVGLED | -0.023 ± 0.33 |
| FSGDGCRDSA | 0.307 ± 0.56 |
| VLDINIFMISYCFHMHYDQV | 5.49 ± 0.091 |
| AGWQCLCSLFLLKEITTCIS | -0.367 ± 0.56 |
| YANDELLGAGGADS | 0.652 ± 0.35 |
| IEHIRFTSSSAVVRRCGNC | 6.11 ± 0.066 |
| GLRFVYLIYTGRS | -0.497 ± 0.64 |
| NHRQDKLQNHVSGLPSIGSL | 0.059 ± 0.36 |
| YMFMIRSGFV | -0.376 ± 0.37 |
| RNRSKQDQWRNELSAGLHGV | -0.359 ± 0.45 |
| CSGHNRYYPRRGMDQHMLVF | 0.266 ± 0.2 |
| MIWTKRLDDHELCLGSRSML | -0.739 ± 0.79 |
| FIVWVV | -0.916 ± 1.1 |
| LILWRA | 0.456 ± 0.39 |
| LYRVLNTVHVSHLQTIRP | -0.064 ± 1.1 |
| SLLGVENNCVISFTTIFVVS | 5.11 ± 0.088 |
